# Test results taken from patent US20200317768A1 (published 2020).
# T1: Human latent myostatin (human, UniProt O14793 25-266; O14793 267-375)
# T1 construct: Biotinylated in the ELISAs; also called human myostatin latent form
# T1 sequence 1: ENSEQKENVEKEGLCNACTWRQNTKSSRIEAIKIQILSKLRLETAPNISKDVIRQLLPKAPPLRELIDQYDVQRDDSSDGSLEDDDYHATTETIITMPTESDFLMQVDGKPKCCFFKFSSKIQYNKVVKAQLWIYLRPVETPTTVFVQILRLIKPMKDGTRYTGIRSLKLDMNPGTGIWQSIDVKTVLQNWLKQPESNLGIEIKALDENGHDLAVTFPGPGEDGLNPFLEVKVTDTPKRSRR
# T1 sequence 2: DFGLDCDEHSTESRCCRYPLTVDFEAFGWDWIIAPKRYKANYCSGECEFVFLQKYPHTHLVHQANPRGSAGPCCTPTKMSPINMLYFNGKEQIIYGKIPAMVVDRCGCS
# T2: mature myostatin (human (mature form 100% identical in …, UniProt O08689 268-376 (mouse entry)))
# T2 construct: Disulfide-bonded homodimer purified from latent myostatin; Biotinylated in the ELISA; also called human myostatin mature form; active myostatin
# T2 sequence: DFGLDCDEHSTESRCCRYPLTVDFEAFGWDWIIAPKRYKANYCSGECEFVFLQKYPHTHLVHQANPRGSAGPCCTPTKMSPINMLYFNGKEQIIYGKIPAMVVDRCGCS
# T3: Mouse latent myostatin (mouse, UniProt O08689 26-267; O08689 268-376)
# T3 construct: signal 1-24
# T3 sequence 1: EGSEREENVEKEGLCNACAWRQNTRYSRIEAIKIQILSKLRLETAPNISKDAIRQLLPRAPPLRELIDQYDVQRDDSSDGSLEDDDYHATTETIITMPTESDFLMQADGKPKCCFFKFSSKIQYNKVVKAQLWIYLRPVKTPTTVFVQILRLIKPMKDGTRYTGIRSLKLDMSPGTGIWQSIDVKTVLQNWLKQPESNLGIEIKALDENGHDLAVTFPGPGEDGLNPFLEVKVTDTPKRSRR
# T3 sequence 2: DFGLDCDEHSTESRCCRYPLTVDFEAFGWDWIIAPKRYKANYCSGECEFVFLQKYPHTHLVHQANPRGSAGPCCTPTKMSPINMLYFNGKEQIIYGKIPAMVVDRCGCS
# T4: Cynomolgus monkey latent myostatin (cynomolgus monkey, UniProt Q95J86 25-266; Q95J86 267-375)
# T4 construct: signal 1-24; also called Cyno latent myostatin
# T4 sequence 1: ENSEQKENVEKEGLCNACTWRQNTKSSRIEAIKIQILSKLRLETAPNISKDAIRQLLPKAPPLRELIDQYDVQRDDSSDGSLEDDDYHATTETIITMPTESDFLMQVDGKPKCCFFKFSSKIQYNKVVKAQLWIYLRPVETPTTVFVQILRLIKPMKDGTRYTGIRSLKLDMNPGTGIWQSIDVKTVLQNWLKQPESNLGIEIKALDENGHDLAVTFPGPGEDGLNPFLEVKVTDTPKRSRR
# T4 sequence 2: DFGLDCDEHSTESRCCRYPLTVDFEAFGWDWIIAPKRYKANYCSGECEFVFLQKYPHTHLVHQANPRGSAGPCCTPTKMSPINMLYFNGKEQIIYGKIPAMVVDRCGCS
# T5: Human GDF11 with Flag-tag on N-terminus (human, UniProt O95390 11-407)
# T5 construct: Whole entry as named; Biotinylated in the ELISA; also called Flag-hGDF11; human latent GDF11
# T5 sequence: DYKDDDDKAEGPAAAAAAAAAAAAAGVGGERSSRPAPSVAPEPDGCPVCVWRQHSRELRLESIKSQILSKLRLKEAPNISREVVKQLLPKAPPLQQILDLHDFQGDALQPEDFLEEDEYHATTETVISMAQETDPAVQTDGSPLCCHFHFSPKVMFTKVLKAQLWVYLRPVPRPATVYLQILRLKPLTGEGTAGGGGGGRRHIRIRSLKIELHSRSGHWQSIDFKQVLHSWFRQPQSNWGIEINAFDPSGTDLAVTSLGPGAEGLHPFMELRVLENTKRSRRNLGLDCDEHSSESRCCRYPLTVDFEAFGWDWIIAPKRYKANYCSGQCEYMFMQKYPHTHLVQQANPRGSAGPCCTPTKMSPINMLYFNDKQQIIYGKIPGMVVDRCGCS
# Experiments:
# Human latent myostatin [1] = molecular target: T1, Human latent myostatin; assay: SPR (BIACORE) as in Example 7; antigen not given, values equal those for human latent myostatin in Table 3
# Procedure: (§1) The kinetic parameters of anti-latent myostatin antibodies against human, cynomolgus monkey (cyno), and mouse latent myostatin were assessed at 37° C. at pH7.4 using a BIACORE® T200 instrument (GE Healthcare). ProA/G (Pierce) was immobilized onto all flow cells of a CM4 chip using amine coupling kit (GE Healthcare). Anti-latent myostatin antibody and analytes were prepared in ACES pH7.4 (20 mM ACES, 150 mM NaCl, 1.2 mM CaCl₂), 0.05% TWEEN® 20, 0.005% NaN₃). […] Then human, cyno, or mouse latent myostatin was injected at 3.125 to 50 nM prepared by two-fold serial dilution, followed by dissociation. The sensor surface was regenerated with 25 mM NaOH. Kinetic parameters were determined by processing and fitting the data to a 1:1 binding model using BIACORE® T200 Evaluation software, version 2.0 (GE Healthcare).
# Humanized antibodies were transiently expressed in FS293-F cells, and HEK Blue Assay and BIACORE® analysis were carried out as described above.
# mature myostatin = molecular target: T2, mature myostatin; assay: ELISA, biotinylated antigen (4 nM) on streptavidin plate, anti-human IgG-HRP
# Procedure: Uncoated ELISA plates (NUNC-IMMUNO plate MAXISORP surface, Nalge Nunc International) were coated with 20 μL of 50 nM streptavidin (GenScript) for 1 hour at room temperature. Plates were then washed with PBST three times and blocked with 50 μL 20% Blocking One (Nacalai Tesque) overnight. On the next day, each well of each plate was incubated with biotinylated mature myostatin, human or mouse biotinylated latent myostatin, or biotinylated recombinant mouse myostatin propeptide-Fc chimera protein (R&D Systems) at 4 nM/well/20 μL for 2 hours. After washing, 20 μL of antibody sample was added to the wells and the plates were left for 1 hour. The plates were washed and 20 μL of anti-human IgG-horseradish peroxidase (HRP) (Abcam) diluted in HEPES-buffered saline was added, and the plates were left for another hour. The plates were then washed again, and then 50 μL ABTS (KPL) was added to each well, and the plates were incubated for 1 hour.
# Mouse latent myostatin = molecular target: T3, Mouse latent myostatin; assay: SPR (BIACORE T200), antibody captured by ProA/G, latent myostatin as analyte, 37 C, pH7.4, 1:1 fit
# Procedure: as §1
# Human latent myostatin [2] = molecular target: T1, Human latent myostatin; assay: as above
# Procedure: as §1
# [3] = molecular target: T4, Cynomolgus monkey latent myostatin; assay: as above
# Procedure: as §1
# [4] = molecular target: T5, Human GDF11 with Flag-tag on N-terminus; assay: ELISA, biotinylated human latent GDF11 (20 nM) on streptavidin plate, anti-human IgG-HRP
# Procedure: Uncoated ELISA plates (NUNC-IMMUNO plate MAXISORP™ surface, Nalge Nunc International) were coated with 20 μL of 50 nM streptavidin (GenScript) for 2 hour at room temperature. Plates were then washed with PBST three times and blocked with 50 μL 20% Blocking One (Nacalai Tesque) for overnight. On the next day, each well of the plates was incubated with biotinylated human latent myostatin at 2 nM/well/20 μL or biotinylated human latent GDF11 at 20 nM/well/20 μL for 2 hours. After washing, 20 μL of antibody sample was added to the wells and the plates were left for 1 hour. The plates were washed and 20 μL of anti-human IgG-horseradish peroxidase (HRP) (Abcam) diluted in HEPES-buffered saline was added, and the plates were left for another hour. The wells were washed again, and then 50 μL ABTS (KPL) was added to each well, and the plates were incubated for 1 hour.
binder,measurement,setting,value
"MS_MST1032Ha-G1m/MST1032La-k0MC (antibody, human IgG1, kappa, V domains shown, Chimeric antibody: rabbit variable regions, human G1m / k0MC constant regions; also called MST1032-G1m) VH: QSLEESGGRLVTPGGSLTVTCRVSGIDLSSYDISWVRQAPGKGLEWIGIISYAGSTYYASWAKGRFTISKTSTTVDLKMTSLTTEDTATYFCARGVPAYSTGGDLWGPGTLVTVSS VL: AQVLTQTASSVSAAVGGTVTINCQSSQSVYDNNWLSWFQQKPGQPPKLLIYWASTLASGVPSRFKGSGSGTQFTLTISDLECDDAATYYCAGGYGGGLYAFGGGTKVEIKR",Kd,Human latent myostatin [1],0.0766 nM
same,koff,Human latent myostatin [1],8.65e-05 s⁻¹
same,kon,Human latent myostatin [1],1.13e+06 M⁻¹ s⁻¹
same,binding result,mature myostatin,no binding
same,Kd,Mouse latent myostatin,0.0579 nM
same,koff,Mouse latent myostatin,8.16e-05 s⁻¹
same,kon,Mouse latent myostatin,1.41e+06 M⁻¹ s⁻¹
same,Kd,Human latent myostatin [2],0.0766 nM
same,koff,Human latent myostatin [2],8.65e-05 s⁻¹
same,kon,Human latent myostatin [2],1.13e+06 M⁻¹ s⁻¹
same,Kd,[3],0.0717 nM
same,koff,[3],7.79e-05 s⁻¹
same,kon,[3],1.09e+06 M⁻¹ s⁻¹
same,binding result,[4],no binding
